Biological target: T1, HA A/Solomon Islands/03/2006 globular head (Influenza A virus A/Solomon …)
T1 chain: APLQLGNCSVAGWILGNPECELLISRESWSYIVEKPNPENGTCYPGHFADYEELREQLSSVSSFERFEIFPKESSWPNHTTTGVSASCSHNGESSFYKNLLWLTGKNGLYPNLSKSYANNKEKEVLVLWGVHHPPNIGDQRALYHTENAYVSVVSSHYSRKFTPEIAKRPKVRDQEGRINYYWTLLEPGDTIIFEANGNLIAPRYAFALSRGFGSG
Assay: BLI

B1: CH67 Fab, critical dipeptide VD changed to ID (Fab, V domains shown)
VH: QVQLVQSGAEVRKPGASVKVSCKASGYTFTDNYIHWVRQAPGQGLEWMGWIHPNSGATKYAQKFEGWVTMTRDTSISTVYMELSRSRSDDTAVYYCARAGLEPRSIDYYFYGLDVWGQGTAVTVSS
VL: QSALTQPPSVSVAPGQTATITCGGNNIGRKRVDWFQQKPGQAPVLVVYEDSDRPSGIPERFSDSNSGTTATLTISRVEAGDEADYYCQVWDSDSDHVVFGGGTKLTVL
In the case of B1, the Kd is reported as 1790 ± 120 nM and the kon is reported as 42400 M⁻¹ s⁻¹.
